Among the data in paper PMC4262935 are k3 (rate of dissociation of XBs from thin filaments, with ATP) values, retold here.

In experiment [1] the target is actin in thin filaments (mouse (endogenous in C57BL/6 ventricular myofibrils)) (UniProt P68033).
Experiment [2] shares this target. The source holds these as a separate data set.

Read-outs that look alike come from different tables or passages of the source.

Regarding “myosin cross-bridge (from UniProt Q02566 1-1938; P09542 1-204; P51667 1-166) (complex)”, the k3 (rate of dissociation of XBs from thin filaments, with ATP) in experiment [1] stood at 0.0492 s⁻¹; in experiment [2], 0.061 s⁻¹.
